Measured values taken from publication PMC2928130.

Target: GST-RPGR^1–15 H98Q (UniProt Q92834)
Experiment: pull-down

Chain of UniProt Q92834 (Q92834 whole entry H98Q): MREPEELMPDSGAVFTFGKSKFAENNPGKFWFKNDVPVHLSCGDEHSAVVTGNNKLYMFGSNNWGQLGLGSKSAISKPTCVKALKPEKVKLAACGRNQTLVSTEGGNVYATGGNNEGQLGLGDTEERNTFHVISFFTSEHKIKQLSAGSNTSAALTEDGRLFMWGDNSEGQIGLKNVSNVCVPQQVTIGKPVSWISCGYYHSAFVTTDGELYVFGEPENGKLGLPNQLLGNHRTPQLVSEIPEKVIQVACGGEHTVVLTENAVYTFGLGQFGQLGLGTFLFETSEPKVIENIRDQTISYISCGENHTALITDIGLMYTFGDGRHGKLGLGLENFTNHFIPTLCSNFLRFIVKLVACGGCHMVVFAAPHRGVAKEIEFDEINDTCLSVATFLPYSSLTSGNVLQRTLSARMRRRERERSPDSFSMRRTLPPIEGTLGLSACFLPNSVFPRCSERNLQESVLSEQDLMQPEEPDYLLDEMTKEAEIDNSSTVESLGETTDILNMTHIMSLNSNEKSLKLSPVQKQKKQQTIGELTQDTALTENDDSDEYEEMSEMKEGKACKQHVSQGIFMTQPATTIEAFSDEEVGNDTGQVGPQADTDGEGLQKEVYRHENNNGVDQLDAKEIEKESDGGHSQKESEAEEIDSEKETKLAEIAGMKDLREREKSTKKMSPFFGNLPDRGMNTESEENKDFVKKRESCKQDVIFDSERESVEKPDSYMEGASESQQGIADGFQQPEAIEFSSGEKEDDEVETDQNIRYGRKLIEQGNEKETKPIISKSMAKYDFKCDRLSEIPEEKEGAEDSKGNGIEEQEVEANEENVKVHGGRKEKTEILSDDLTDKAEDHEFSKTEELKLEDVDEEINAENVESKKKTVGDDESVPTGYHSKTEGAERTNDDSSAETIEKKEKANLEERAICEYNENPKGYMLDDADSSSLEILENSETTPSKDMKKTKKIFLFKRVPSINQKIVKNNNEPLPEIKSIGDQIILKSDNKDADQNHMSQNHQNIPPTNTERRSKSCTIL

fold less association than WT-RPGR: 5 fold
Substance: ^35S-labeled RAB8A-T22N (GDP-locked form), in vitro translated (from UniProt P61006 1-207) (natural protein)
